# Measured values as given in US20130266516, “LAR Protein-Specific Ligand” (COMMISSARIAT A L'ENERGIE ATOMIQUE ET AUX ENERGIES, published 2013).
# Tests used:
# Conditions in all cases: label: radiolabel, biotin or Alexa Fluor 647/680
# [1] = biological target: T1, LAR protein (PTPRF, receptor-type protein tyrosine phosphatase F), endogenous on human cell lines (Homo sapiens, UniProt P10586 SEQ:30-1907); assay: A-431 whole cells, Scatchard; Cmax 455 pM
# Protocol: (§1) The binding curves were obtained for each cell type. From the specific binding, and using the Scatchard representation, the Kd and the Cmax were calculated for each cell type. Knowing the Cmax and the number of cells during the binding, the inventors were able to deduce therefrom an approximate number of targets per cell.
# [2] = biological target: T1, LAR protein (PTPRF, receptor-type …); assay: MCF-7 whole cells, Scatchard analysis of radioligand-type cell binding; Cmax 251 pM
# Protocol: as §1
# [3] = biological target: T1, LAR protein (PTPRF, receptor-type …); assay: HEK293-KDR whole cells, Scatchard; Cmax 119 pM
# Protocol: as §1
# [4] = biological target: T1, LAR protein (PTPRF, receptor-type …); assay: MDA-MB-231 whole cells, Scatchard; Cmax 131 pM
# Protocol: as §1
# [5] = biological target: T1, LAR protein (PTPRF, receptor-type …); assay: HEK293 whole cells, Scatchard; Cmax 264 pM
# Protocol: as §1
# T1 sequence (P10586 30-1907): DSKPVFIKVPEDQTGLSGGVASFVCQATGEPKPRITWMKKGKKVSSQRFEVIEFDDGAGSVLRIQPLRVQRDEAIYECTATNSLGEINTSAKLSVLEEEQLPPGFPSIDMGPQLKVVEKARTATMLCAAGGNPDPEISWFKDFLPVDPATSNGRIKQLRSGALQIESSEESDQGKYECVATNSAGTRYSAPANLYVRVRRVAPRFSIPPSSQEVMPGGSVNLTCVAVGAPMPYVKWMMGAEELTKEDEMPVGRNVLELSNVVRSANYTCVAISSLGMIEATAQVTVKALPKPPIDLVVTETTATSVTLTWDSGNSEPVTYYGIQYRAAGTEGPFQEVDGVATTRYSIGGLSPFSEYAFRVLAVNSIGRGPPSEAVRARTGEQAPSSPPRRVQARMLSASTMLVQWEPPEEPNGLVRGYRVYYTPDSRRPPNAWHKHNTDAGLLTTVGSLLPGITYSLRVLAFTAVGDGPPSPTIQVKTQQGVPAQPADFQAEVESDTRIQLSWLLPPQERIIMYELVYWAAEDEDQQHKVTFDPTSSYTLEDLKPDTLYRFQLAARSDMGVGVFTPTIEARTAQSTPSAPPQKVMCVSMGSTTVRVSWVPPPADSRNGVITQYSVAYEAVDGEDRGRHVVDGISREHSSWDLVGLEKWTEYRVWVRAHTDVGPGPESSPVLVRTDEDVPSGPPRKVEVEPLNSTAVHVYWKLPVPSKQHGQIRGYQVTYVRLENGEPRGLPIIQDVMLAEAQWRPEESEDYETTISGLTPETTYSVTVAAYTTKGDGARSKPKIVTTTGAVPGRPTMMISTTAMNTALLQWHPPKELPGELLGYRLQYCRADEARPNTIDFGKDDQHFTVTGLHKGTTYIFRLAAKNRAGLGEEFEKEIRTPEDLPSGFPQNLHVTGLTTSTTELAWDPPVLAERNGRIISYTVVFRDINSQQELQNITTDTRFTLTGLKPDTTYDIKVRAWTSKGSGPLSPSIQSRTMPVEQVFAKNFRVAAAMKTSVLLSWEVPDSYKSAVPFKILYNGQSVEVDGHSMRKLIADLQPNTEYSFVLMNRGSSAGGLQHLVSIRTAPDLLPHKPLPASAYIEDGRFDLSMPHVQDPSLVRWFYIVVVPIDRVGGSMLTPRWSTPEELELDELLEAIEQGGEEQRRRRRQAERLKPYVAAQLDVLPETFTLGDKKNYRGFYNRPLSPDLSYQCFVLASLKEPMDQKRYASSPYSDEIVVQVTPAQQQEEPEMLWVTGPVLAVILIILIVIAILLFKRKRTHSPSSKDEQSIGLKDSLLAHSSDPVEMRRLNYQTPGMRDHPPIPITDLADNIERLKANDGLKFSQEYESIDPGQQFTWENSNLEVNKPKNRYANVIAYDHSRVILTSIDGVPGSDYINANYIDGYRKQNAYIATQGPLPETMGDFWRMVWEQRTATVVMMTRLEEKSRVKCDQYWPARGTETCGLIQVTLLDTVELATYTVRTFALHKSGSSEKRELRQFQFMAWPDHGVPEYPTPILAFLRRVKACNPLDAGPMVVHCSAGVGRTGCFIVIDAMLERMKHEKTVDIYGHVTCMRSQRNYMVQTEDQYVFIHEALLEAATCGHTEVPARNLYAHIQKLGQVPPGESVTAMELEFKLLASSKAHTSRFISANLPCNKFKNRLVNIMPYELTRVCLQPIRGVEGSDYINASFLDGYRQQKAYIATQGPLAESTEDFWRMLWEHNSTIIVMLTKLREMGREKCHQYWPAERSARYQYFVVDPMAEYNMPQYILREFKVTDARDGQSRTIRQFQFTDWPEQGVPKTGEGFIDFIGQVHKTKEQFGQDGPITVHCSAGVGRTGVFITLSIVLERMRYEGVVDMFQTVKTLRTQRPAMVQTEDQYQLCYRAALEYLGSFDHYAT
binder,measurement,setting,value
"V8 aptamer (ssRNA, 2'-F on all pyrimidines, 2'-OH purines) RNA: GGGAGAUGCUCUGUCAGACUACGACUGUCCCAGUAUGACGCGACUGCUUAGGUGGGAUGUUUCCCAUGCCUCGACUGGCUGGCAGGUUGAUGACAAG",Kd,[1],5.6 nM
same,Kd,[2],1.6 nM
same,Kd,[3],5.3 nM
same,Kd,[4],3 nM
same,Kd,[5],3.8 nM
